The values that follow come from patent US20200292534A1.

T1: NLpoly11S
T1 chain: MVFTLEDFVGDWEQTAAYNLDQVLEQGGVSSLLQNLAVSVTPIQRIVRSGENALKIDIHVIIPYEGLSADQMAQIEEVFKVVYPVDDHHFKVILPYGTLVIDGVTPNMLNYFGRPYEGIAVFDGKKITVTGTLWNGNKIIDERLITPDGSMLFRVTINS

B1: array2.5 (peptide)
peptide: VTGYRLFKQAS
modifications: not checked
B2: array2.58 (peptide)
peptide: VEGYRLFKQIS
modifications: not checked
B3: array2.6 (peptide)
peptide: VTGYRLFKQES
modifications: not checked
B4: array2.70 (peptide)
peptide: VEGYRLFQEIS
modifications: not checked
B5: array2.80 (peptide)
peptide: VEGYRLFEEAS
modifications: not checked
B6: array2.84 (peptide)
peptide: VEGYRLFKKEL
modifications: not checked
B7: array2.88 (peptide)
peptide: VEGYRLFKEIL
modifications: not checked
B8: array2.55 (peptide)
peptide: VEGYRLFKKIS
modifications: not checked
B9: array2.8 (peptide)
peptide: VTGYRLFKEAS
modifications: not checked
B10: array2.82 (peptide)
peptide: VEGYRLFKKIL
modifications: not checked
B11: array2.64 (peptide)
peptide: VEGYRLFQKIS
modifications: not checked
B12: array2.68 (peptide)
peptide: VEGYRLFQQAS
modifications: not checked
B13: array2.59 (peptide)
peptide: VEGYRLFKQAS
modifications: not checked
B14: array2.77 (peptide)
peptide: VEGYRLFEQAS
modifications: not checked
B15: array2.83 (peptide)
peptide: VEGYRLFKKAL
modifications: not checked
B16: array2.76 (peptide)
peptide: VEGYRLFEQIS
modifications: not checked
B17: array2.91 (peptide)
peptide: VEGYRLFQKIL
modifications: not checked
B18: array2.57 (peptide)
peptide: VEGYRLFKKES
modifications: not checked
B19: array2.1 (peptide)
peptide: VTGYRLFKKIS
modifications: not checked
B20: array2.75 (peptide)
peptide: VEGYRLFEKES
modifications: not checked
B21: array2.66 (peptide)
peptide: VEGYRLFQKES
modifications: not checked
B22: array2.56 (peptide)
peptide: VEGYRLFKKAS
modifications: not checked
B23: array2.71 (peptide)
peptide: VEGYRLFQEAS
modifications: not checked
B24: array2.7 (peptide)
peptide: VTGYRLFKEIS
modifications: not checked
B25: array2.60 (peptide)
peptide: VEGYRLFKQES
modifications: not checked
B26: array2.85 (peptide)
peptide: VEGYRLFKQIL
modifications: not checked
B27: array2.62 (peptide)
peptide: VEGYRLFKEAS
modifications: not checked
B28: array2.90 (peptide)
peptide: VEGYRLFKEEL
modifications: not checked
B29: array2.87 (peptide)
peptide: VEGYRLFKQEL
modifications: not checked
B30: array2.67 (peptide)
peptide: VEGYRLFQQIS
modifications: not checked
B31: array2.61 (peptide)
peptide: VEGYRLFKEIS
modifications: not checked
B32: array2.86 (peptide)
peptide: VEGYRLFKQAL
modifications: not checked
B33: array2.74 (peptide)
peptide: VEGYRLFEKAS
modifications: not checked
B34: array2.65 (peptide)
peptide: VEGYRLFQKAS
modifications: not checked
B35: array2.93 (peptide)
peptide: VEGYRLFQKEL
modifications: not checked
B36: array2.89 (peptide)
peptide: VEGYRLFKEAL
modifications: not checked
B37: array2.92 (peptide)
peptide: VEGYRLFQKAL
modifications: not checked
B38: array2.73 (peptide)
peptide: VEGYRLFEKIS
modifications: not checked
B39: array2.78 (peptide)
peptide: VEGYRLFEQES
modifications: not checked
B40: array2.63 (peptide)
peptide: VEGYRLFKEES
modifications: not checked

This assay concerns the target T1, NLpoly11S. Briefly: luminescence complementation titration, one-site specific binding fit.
Take B1: the Bmax came to 31000 and the dissociation constant Kd (in general, the equilibrium constant for the complex coming apart) was determined as 1.95 µM.

B2 registered a Bmax of 21500 and a Kd of 2.09 µM.

With B3, the Bmax was 5010 and the equilibrium dissociation constant (Kd) is 1.35 µM.

Regarding B4, the Bmax was determined as 29200 and the equilibrium dissociation constant (Kd) worked out at 230 µM.

As to B5, the Bmax stood at 383000 and the dissociation constant Kd is 1420 µM.

B6: the Bmax worked out at 7830 and the Kd is 1.41 µM.

On to B7, for which the Bmax stood at 9830 and the equilibrium dissociation constant (Kd) amounted to 17.8 µM.

With B8, the Bmax came to 42400 and the Kd was 0.078 µM.

For B9, the Bmax was 3930 and the Kd amounted to 2.57 µM.

As for B10, the Bmax came to 43400 and the dissociation constant (Kd) is 0.563 µM.

B11 registered a Bmax of 36500 and a dissociation constant Kd of 0.586 µM.

As for B12, the Bmax was determined as 3750 and the Kd amounted to 20 µM.

Consider B13, for which the Bmax worked out at 2300 and the Kd was found to be 2.09 µM.

For B14, the Bmax is 26900 and the equilibrium dissociation constant (Kd) was found to be 48.3 µM.

The molecule B15 gave a Bmax of 20800 and a dissociation constant (Kd) of 1.59 µM.

Molecule B16 displayed a Bmax of 18000 and a Kd of 52.8 µM.

On to B17, for which the Bmax was determined as 50500 and the Kd was determined as 2.08 µM.

Turning to B18, the Bmax was 3370 and the Kd was 0.891 µM.

Molecule B19 gave a Bmax of 135000 and a dissociation constant Kd of 0.0133 µM.

On to B20, for which the Bmax turned out to be 1170 and the Kd turned out to be 2.97 µM.

On to B21, for which the Bmax was 3490 and the Kd stood at 2.87 µM.

For the molecule B22, the Bmax was 15900 and the equilibrium dissociation constant (Kd) came out at 0.641 µM.

In turn, B23 gave a Bmax of 44900 and a Kd of 24 µM.

In the case of B24, the Bmax was 32000 and the Kd amounted to 4.44 µM.

Take B25: the Bmax was 4350 and the equilibrium dissociation constant (Kd) came out at 10.6 µM.

As for B26, the Bmax amounted to 31400 and the Kd came out at 10.3 µM.

Molecule B27 displayed a Bmax of 2380 and a Kd of 22.1 µM.

With B28, the Bmax came out at 12200 and the equilibrium dissociation constant (Kd) is 101 µM.

B29 registered a Bmax of 1790 and an equilibrium dissociation constant (Kd) of 12.6 µM.

Molecule B30 returned a Bmax of 5220 and a Kd of 8.14 µM.

Take B31: the Bmax was determined as 5460 and the Kd came to 14.4 µM.

In the case of B32, the Bmax was found to be 2300 and the dissociation constant (Kd) was determined as 2.27 µM.

B33 displayed a Bmax of 3810 and a Kd of 4.14 µM.

B34: the Bmax amounted to 10600 and the dissociation constant (Kd) is 1.93 µM.

B35 registered a Bmax of 4090 and a dissociation constant (Kd) of 1.69 µM.

The molecule B36 yielded a Bmax of 5570 and a Kd of 42.4 µM.

With B37, the Bmax worked out at 12300 and the equilibrium dissociation constant (Kd) worked out at 2.02 µM.

For B38, the Bmax was 22500 and the Kd turned out to be 2.15 µM.

Molecule B39 yielded a Bmax of 39400 and a Kd of 252 µM.

Molecule B40 displayed a Bmax of 17300 and a dissociation constant (Kd) of 220 µM.
